Data published in patent publication US20260201008A1, “SECRETIN-DERIVED GLP1R SELECTIVE AGONISTS” (GUBRA A/S, priority 2023, published 2026).
Square brackets hold non-standard residues; d marks the D form. Ends that are not written are not given here. Aib = CC(C)(N)C(=O)O

Key:
[1] = biological target: human GLP-1 receptor (hGLP1R) (human, UniProt P43220 24-463); experiment: cell-based or functional assay
[2] = biological target: human secretin receptor (hSCTR) (human, UniProt P47872 23-440); experiment: cell-based or functional assay
human secretin receptor (hSCTR), sequence (P47872 23-440): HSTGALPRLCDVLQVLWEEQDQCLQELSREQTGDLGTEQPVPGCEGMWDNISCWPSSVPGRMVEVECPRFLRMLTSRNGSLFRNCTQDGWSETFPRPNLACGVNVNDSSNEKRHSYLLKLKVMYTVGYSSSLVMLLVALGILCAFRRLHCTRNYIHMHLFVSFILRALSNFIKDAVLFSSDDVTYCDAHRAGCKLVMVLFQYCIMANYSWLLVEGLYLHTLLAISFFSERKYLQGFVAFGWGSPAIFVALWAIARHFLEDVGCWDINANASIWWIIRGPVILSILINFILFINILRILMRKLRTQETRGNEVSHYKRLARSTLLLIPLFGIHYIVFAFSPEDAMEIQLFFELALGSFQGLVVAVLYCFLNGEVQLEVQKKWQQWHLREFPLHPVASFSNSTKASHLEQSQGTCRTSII

Binder | pEC50 hGLPR1 [1] | pEC50 hSCTR [2]
H[Aib]EGTFTSDPSVLLEGAALQRFIQWLV-NH2 (N-terminus assumed; SMILES CC[C@H](C)[C@H](NC(=O)[C@H](Cc1ccccc1)NC(=O)[C@H](CCCNC(=N)N)NC(=O)[C@H](CCC(N)=O)NC(=O)[C@H](CC(C)C)NC(=O)[C@H](C)NC(=O)[C@H](C)NC(=O)CNC(=O)[C@H](CCC(=O)O)NC(=O)[C@H](CC(C)C)NC(=O)[C@H](CC(C)C)NC(=O)[C@@H](NC(=O)[C@H](CO)NC(=O)[C@@H]1CCCN1C(=O)[C@H](CC(=O)O)NC(=O)[C@H](CO)NC(=O)[C@@H](NC(=O)[C@H](Cc1ccccc1)NC(=O)[C@@H](NC(=O)CNC(=O)[C@H](CCC(=O)O)NC(=O)C(C)(C)NC(=O)[C@@H](N)Cc1c[nH]cn1)[C@@H](C)O)[C@@H](C)O)C(C)C)C(=O)N[C@@H](CCC(N)=O)C(=O)N[C@@H](Cc1c[nH]c2ccccc12)C(=O)N[C@@H](CC(C)C)C(=O)N[C@H](C(N)=O)C(C)C) [SEQ ID NO: 129] | 8.1 -log M | 5 -log M
H[Aib]EGTFTSDVSYLWEEA[Aib]LQRFLEKLV-NH2 (not fully specified (residue 25)) [SEQ ID NO: 130] | 10.5 -log M | 6 -log M
H[Aib]EGTFTSDVSYLKEEA[Aib]NQRFLEHLV-NH2 (not fully specified (residue 14)) [SEQ ID NO: 131] | 11.3 -log M | 5.3 -log M
H[Aib]EGTFTSDVSYLKEEALLQRFLEHLV-NH2 (not fully specified (residue 14)) [SEQ ID NO: 132] | 10.7 -log M | 6.7 -log M
H[Aib]EGTFTSDVSYLKEEA[Aib]LQRFLEFLV-NH2 (not fully specified (residue 14)) [SEQ ID NO: 133] | 10.8 -log M | 6.4 -log M
H[Aib]EGTFTSDVSYLKEEA[Aib]SQRFLEHLV-NH2 (not fully specified (residue 14)) [SEQ ID NO: 134] | 11.1 -log M | 5.6 -log M
H[Aib]EGTFTSDVSYLKEEA[Aib]LQRWLEHLV-NH2 (not fully specified (residue 14)) [SEQ ID NO: 135] | 11.3 -log M | 6.9 -log M
H[Aib]EGTFTSDVSELKEEAAQQRFLEHLV-NH2 (not fully specified (residue 14); also: K14 lipidated with C20DA[γE][OEG][OEG]- or C18DA[γE][OEG][OEG]-) [SEQ ID NO: 14] | 10.7 -log M | 6.7 -log M
H[Aib]EGTFTSDVSNLKEEA[Aib]LQRFLEHLV-NH2 (not fully specified (residue 14)) [SEQ ID NO: 136] | 10.9 -log M | 7.9 -log M
H[Aib]EGTFTSDVSYLKEEAALQRFLEHLV-NH2 (not fully specified (residue 14)) [SEQ ID NO: 137] | 11.1 -log M | 7.1 -log M
H[Aib]EGTFTSDVSVLKEEA[Aib]LQRFLEHLV-NH2 (not fully specified (residue 14)) [SEQ ID NO: 138] | 10.9 -log M | 7.5 -log M
H[Aib]EGTFTSDVSYLKEEA[Aib]IQRFLEHLV-NH2 (not fully specified (residue 14)) [SEQ ID NO: 139] | 11.2 -log M | 6.9 -log M
H[Aib]EGTFTSDVSPLKEEA[Aib]LQRFLEHLV-NH2 (not fully specified (residue 14); also: K14 lipidated with C20DA[γE][OEG][OEG]- or C18DA[γE][OEG][OEG]-) [SEQ ID NO: 140] | 8.9 -log M | 4.7 -log M
H[Aib]EGTFTSDVSYLKEEA[Aib]LQRYLEHLV-NH2 (not fully specified (residue 14); also: K14 lipidated with C20DA[γE][OEG][OEG]- or C18DA[γE][OEG][OEG]-) [SEQ ID NO: 141] | 11.4 -log M | 6.6 -log M
HGEGTFTSDVSYLKEEA[Aib]LQRFLEHLV-NH2 (not fully specified (residue 14); also: K14 lipidated with C20DA[γE][OEG][OEG]- or C18DA[γE][OEG][OEG]-) [SEQ ID NO: 142] | 10.9 -log M | 4.7 -log M
H[Aib]EGTFTSDVSYLYEEA[Aib]LQRFLEKLV-NH2 (not fully specified (residue 25)) [SEQ ID NO: 143] | 11 -log M | 6.1 -log M
H[Aib]EGTFTSDVSYLKEEA[Aib]LQRFLEYLV-NH2 (not fully specified (residue 14); also: K14 lipidated with C20DA[γE][OEG][OEG]- or C18DA[γE][OEG][OEG]-) [SEQ ID NO: 144] | 10.8 -log M | 6.6 -log M
H[Aib]EGTFTSDVSHLKEEA[Aib]LQRFLEHLV-NH2 (not fully specified (residue 14); also: K14 lipidated with C20DA[γE][OEG][OEG]- or C18DA[γE][OEG][OEG]-) [SEQ ID NO: 145] | 11.1 -log M | 7.2 -log M
H[Aib]EGTFTSDVSVLKE[Aib]AAAQRFLEHLV-NH2 (not fully specified (residue 14)) [SEQ ID NO: 15] | 10.1 -log M | 6.5 -log M
H[Aib]EGTFTSDVSYLKEEA[Aib]AQRFLEHLV-NH2 (not fully specified (residue 14)) [SEQ ID NO: 146] | 11.6 -log M | 5.7 -log M
H[Aib]EGTFTSDVSYLKEEA[Aib]LQRFLEKLV-NH2 (not fully specified (residue 14)) [SEQ ID NO: 147] | 11.3 -log M | 7.2 -log M
H[Aib]EGTFTSDVSALKEEA[Aib]LQRFLEHLV-NH2 (not fully specified (residue 14)) [SEQ ID NO: 148] | 10.8 -log M | 7.2 -log M
H[Aib]EGTFTSDVSLLKEEA[Aib]LQRFLEHLV-NH2 (not fully specified (residue 14)) [SEQ ID NO: 149] | 10.9 -log M | 7.5 -log M
